Experimental data taken from article PMC5344419, “The structure of FKBP38 in complex with the MEEVD tetratricopeptide binding-motif of Hsp90” (PLoS ONE, 2017).

B1: FKBP8 (FKBP^1-380), amino acids 1-380, lacking the C-terminal trans-membrane helix (domain or fragment, UniProt Q14318 1-380, looked up)
chain: MASCAEPSEPSAPLPAGVPPLEDFEVLDGVEDAEGEEEEEEEEEEEDDLSELPPLEDMGQPPAEEAEQPGALAREFLAAMEPEPAPAPAPEEWLDILGNGLLRKKTLVPGPPGSSRPVKGQVVTVHLQTSLENGTRVQEEPELVFTLGDCDVIQALDLSVPLMDVGETAMVTADSKYCYGPQGRSPYIPPHAALCLEVTLKTAVDGPDLEMLTGQERVALANRKRECGNAHYQRADFVLAANSYDLAIKAITSSAKVDMTFEEEAQLLQLKVKCLNNLAASQLKLDHYRAALRSCSLVLEHQPDNIKALFRKGKVLAQQGEYSEAIPILRAALKLEPSNKTIHAELSKLVKKHAAQRSTETALYRKMLGNPSRLPAKCPG
notes: FKBP8, amino acids 1-380, lacking the C-terminal trans-membrane helix; numbers count on full-length FKBP8 (Arg 184 is Arg 127 in FKBP38 numbering); Non-cleavable C-terminal His6 tag from pDMXV4; also called FKBP8 isoform; not shown: His6, C-terminal, kept

Experiments:
Details in all cases: both partners purified
[1] = target: T1, Full-length human Hsp90β (human, UniProt P08238 1-724); test: ITC; 700 to 800 μM FKBP construct injected into 50 μM Hsp90 or Hsp70 protein in the cell; ITC200; 20 mM Tris, 300 mM NaCl, 1 mM EDTA pH 7.5
T1 construct: Hsp90β, human, full length; Expressed from pRSETA as a His-tagged fusion; also called intact Hsp90β

[2] = target: B1; test: as above
[3] = target: T2, Hsp90β^295-724, middle and C-terminal domain fragment of human Hsp90β (human, UniProt P08238 295-724); test: as above
T2 construct: Hsp90β, human, residues 295-724 (middle and C-terminal domain, with the MEEVD motif); Expressed from pRSETA as a His-tagged fusion; also called Hsp90^295-724

[4] = target: B1; test: ITC; 2 mM peptide injected into 50 μM FKBP^1-380 in the cell; ITC200; 20 mM Tris, 300 mM NaCl, 1 mM EDTA pH 7.5

T1 sequence (P08238 whole entry, the tested form may be a part): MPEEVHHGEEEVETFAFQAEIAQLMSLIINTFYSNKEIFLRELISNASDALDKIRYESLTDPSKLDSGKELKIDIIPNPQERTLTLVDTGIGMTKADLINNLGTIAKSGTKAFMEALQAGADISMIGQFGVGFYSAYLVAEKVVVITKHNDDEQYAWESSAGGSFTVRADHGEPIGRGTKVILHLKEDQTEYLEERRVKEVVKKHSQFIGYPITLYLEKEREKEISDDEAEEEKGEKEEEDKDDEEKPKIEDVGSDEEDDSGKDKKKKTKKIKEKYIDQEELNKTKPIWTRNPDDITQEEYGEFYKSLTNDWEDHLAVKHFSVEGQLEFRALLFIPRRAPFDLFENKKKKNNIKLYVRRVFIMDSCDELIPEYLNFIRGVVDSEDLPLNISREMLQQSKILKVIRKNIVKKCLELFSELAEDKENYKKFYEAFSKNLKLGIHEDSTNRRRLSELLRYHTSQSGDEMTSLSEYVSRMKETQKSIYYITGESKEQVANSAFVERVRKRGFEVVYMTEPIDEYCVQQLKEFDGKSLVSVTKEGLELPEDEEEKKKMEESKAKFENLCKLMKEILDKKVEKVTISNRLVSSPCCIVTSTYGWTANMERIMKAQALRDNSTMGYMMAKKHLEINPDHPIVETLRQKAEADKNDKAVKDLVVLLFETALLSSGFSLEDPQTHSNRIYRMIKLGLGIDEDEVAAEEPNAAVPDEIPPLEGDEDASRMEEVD
T2 sequence (P08238 295-724): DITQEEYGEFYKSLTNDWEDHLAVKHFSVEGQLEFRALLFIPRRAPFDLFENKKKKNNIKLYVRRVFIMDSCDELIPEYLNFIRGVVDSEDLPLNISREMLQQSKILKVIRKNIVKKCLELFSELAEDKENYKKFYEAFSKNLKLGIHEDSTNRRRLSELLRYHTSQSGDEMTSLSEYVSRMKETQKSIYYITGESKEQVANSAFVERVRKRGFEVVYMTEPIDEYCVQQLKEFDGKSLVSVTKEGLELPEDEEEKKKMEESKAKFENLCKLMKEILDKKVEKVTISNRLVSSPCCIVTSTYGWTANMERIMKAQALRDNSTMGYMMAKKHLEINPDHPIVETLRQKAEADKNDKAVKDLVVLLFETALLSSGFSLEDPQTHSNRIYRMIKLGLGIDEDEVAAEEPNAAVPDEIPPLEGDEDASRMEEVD

Kd [1] [µM]	stoichiometry N [1]	Kd [2] [µM]	Kd [4] [µM]	Binder	other results
2.6 ± 0.2	1			FKBP38 isoform (FKBP^92-380), immunophilin and TPR domain (domain or fragment, UniProt Q14318 92-380, looked up, FKBP8, fragment 92-380 containing both the immunophilin (PPIase) and TPR domain; numbers count on full-length FKBP8; also called FKBP8^92-380; not shown: His6 (from the vector pDMXV4), C-terminal, kept) EWLDILGNGLLRKKTLVPGPPGSSRPVKGQVVTVHLQTSLENGTRVQEEPELVFTLGDCDVIQALDLSVPLMDVGETAMVTADSKYCYGPQGRSPYIPPHAALCLEVTLKTAVDGPDLEMLTGQERVALANRKRECGNAHYQRADFVLAANSYDLAIKAITSSAKVDMTFEEEAQLLQLKVKCLNNLAASQLKLDHYRAALRSCSLVLEHQPDNIKALFRKGKVLAQQGEYSEAIPILRAALKLEPSNKTIHAELSKLVKKHAAQRSTETALYRKMLGNPSRLPAKCPG	
		8.3 ± 0.6		Hsp90α^464-732, C-terminal domain of human Hsp90α (domain or fragment, Hsp90α, human, residues 464-732 (C-terminal domain); Expressed from p2E as a PreScission cleavable His-tagged fusion; also called C-terminal domain of Hsp90α) not shown	
2.8 ± 0.1	1			B1	Kd [3]: 6.4 ± 0.5 µM
		2.3 ± 0.2		Yeast C-terminal fragment of Hsp90 (yHsp90^546-709) (domain or fragment, Expressed from pRSETA as a His-tagged fusion; also called C-terminal domain of yeast Hsp90) not shown	
			147	GSGPTIEEVD (C-terminal peptide of human Hsp70) [Human Hsp70 GSGPTIEEVD C-terminal peptide]	
			64.5 ± 3.7	EDASRMEEVD (the terminal ten amino-acid residues of Hsp90β) [Hsp90β EDASRMEEVD C-terminal peptide]	
